Measurements reported in paper PMC3459974.

Target: thioredoxin fused-human artemin protein (Trx-ARTN) (human) (UniProt Q5T4W7)
Assay: SEC; Superdex-200 10/300 column; dimeric Trx-ARTN fractions eluted from the CM-sepharose column, from both refolding methods; calibration with protein standards

“thioredoxin fused-human artemin protein (Trx-ARTN) (from UniProt Q5T4W7 40-220) (natural protein)” was tested, and the stoichiometry N was 2.
